In the supplement of paper PMC10567573:

B1: COX4I1 (parent)
chain: FDKEWVAKQTKRMLDMKVNPIQGL

Variants of: B1
Assay: protein stability index of a GFP-peptide fusion (GPS, HEK-293T) (PSI 1-6); higher = more stable
Conditions: c terminus: a fixed tail appended
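Note: lentivirally expressed fusions sorted by FACS into six bins by GFP to DsRed ratio, PSI derived from sequencing read proportions per bin multiplied by bin number.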

Protein stability index: each site, then its substitutions
G23: A 1.43; W 1.88; I 1.81; E 1.72; L 1.35; D 1.9; S 1.7; C 3.51; T 1.77; M 1.76; P 1.39; V 1.59; K 2.02; F 2.36; Q 2.02; R 1.48; N 1.8; Y 1.92; H 1.4
L14: F 2.88; P 1.65; K 2.12; N 1.56; M 1.47; Q 1.23; I 2.1; C 1.38; H 1.65; E 1.43; V 1.41; S 1.54; T 1.79; G 1.72; R 1.82; A 2.35; Y 2.42; D 2.06
A7: K 2.29; P 2.05; E 1.77; F 1.56; Q 1.84; V 1.18; Y 1.71; I 1.68; W 1.77; H 1.74; D 2.32; S 1.11; M 1.81; R 2.45; G 2.28; N 1.65; T 1.76; C 1.27; L 1.56
M16: A 1.48; D 1.97; Q 2.4; N 1.67; F 1.62; Y 1.75; H 1.42; I 2.1; V 1.71; K 1.5; C 1.65; R 1.72; E 1.52; S 1.88; W 2.02; T 1.79; L 2; P 2.19; G 2.13
V6: S 1.96; W 2.67; Y 1.6; P 1.86; Q 2.83; R 2.1; T 1.93
T10: S 1.08; V 1.49; G 2.67; H 1.69; C 1.7; D 1.82; P 2; F 1.82; K 1.78; L 1.24; W 1.82; N 1.73; E 2.21; Q 1.84; I 2.82; A 1.41; M 1.91; R 2.35; Y 1.6
L24: C 2.19; F 1.72; E 3.09; I 2.3; K 1.03; H 2.55; D 1.84; A 1.83; G 2.86
D15: Y 2.36; P 1.84; W 2.07; H 1.88; G 1.75; I 1.76; E 1.68; Q 1.6; S 1.58; C 1.66; F 1.84; K 1.89; T 1.84; A 1.62; V 1.33; N 1.58; M 3.02; L 1.64
R12: D 1.88; T 1.54; E 2.59; F 2.17; W 1.65; C 1.43; S 3.04; Q 2.84; A 1.88; L 3.17; K 1.81; Y 1.56; I 1.96; G 1.35; N 1.36; V 2.27; M 1.6; H 1.97
P20: I 1.56; H 1.78; N 1.47; Q 1.54; G 2.17; R 1.68; F 1.71; A 1.61; K 1.55; V 1.73; Y 2.05; T 2.38; D 1.63; M 2.08; L 1.63; C 1.73; E 1.59; W 2.4; S 1.55
K8: A 1.06; M 1.88; V 1.84; S 1.75; C 2.68; R 2.42; N 1.38; G 1.87; L 2.31; T 1.48; Q 1.18; W 3.04; E 2.35; F 1.99; H 1.77; D 2.29; Y 2.59; P 2.33
K11: W 1.52; T 1.92; S 2.28; Q 1.79; P 2.32; C 2.77; I 1.8; H 1.7; E 1.86; F 1.97; D 1.54; R 1.92; V 2.58; L 1.61; Y 3.38; A 1.84; N 1.54; G 1.62; M 1.9
N19: Y 2.55; Q 1.64; W 1.38; S 1.97; H 1.7; P 2.32; I 1.76; D 1.79; K 1.92; G 1.94; V 2.22; F 1.77; M 1.97; A 1.75; T 1.16; C 2.23; R 1.71; L 1.26; E 1.9
Q22: S 2.23; E 1.71; A 1.93; T 1.91; F 1.73; W 1.68; I 2.79; M 2.69; Y 2.13; H 1.93; G 1.63; L 2.08; K 1.92; D 2.31; N 1.77; R 1.89; V 2.58; C 1.29; P 1.73
Q9: W 1.8; E 2.26; K 2.62; M 2.54; F 1.54; A 3.55; V 1.46; T 2.87; P 2; H 1.77; C 3.23; N 1.42; L 2.08; I 1.6; S 2.46; D 2.2; G 2.65; Y 2.14; R 1.87
V18: E 1.95; N 1.86; P 2.13; Q 2.22; I 1.65; S 1.81; R 2.19; H 1.94; C 1.88; T 2.24; F 1.42; Y 2.87; A 1.79; W 1.99; G 2; D 1.53; L 1.72; M 1.86; K 1.19
M13: W 1.56; L 2.36; R 1.64; A 1.13; T 1.82; K 1.88; C 2.17; S 2.4; I 2.34; D 1.59; H 1.43; Q 2.99; F 2.12; P 2.35; Y 1.63; N 2.23; G 1.64; E 2.06
K17: N 1.88; V 2.03; P 2.24; I 2.3; A 1.96; R 1.95; C 2.08; L 2.57; W 2.4; S 1.55; M 1.58; D 2.49; Y 2.14; Q 1.41; H 1.44; T 1.83; F 2.16; G 1.51; E 1.71
I21: R 1.61; C 2.6; W 2.17; S 1.32; N 2.21; F 1.46; T 1.83; K 2.06; P 1.63; Y 1.75; V 1.89; L 1.64; E 1.66; A 1.54; D 1.93; H 2.19; Q 1.78; G 1.75; M 2.63
